From patent US20140274782A1, “AFFINITY REAGENTS AND METHODS FOR DETECTION, PURIFICATION, AND PROTEOMIC ANALYSIS OF METHYLATED PROTEINS” (The Board of Trustees of the Leland Stanford Junior …, priority 2013, published 2014)

T1: G9a and GLP (Homo sapiens, UniProt Q96KQ7+Q9H9B1)
T1 sequence (Q96KQ7 2-1210 limits assumed): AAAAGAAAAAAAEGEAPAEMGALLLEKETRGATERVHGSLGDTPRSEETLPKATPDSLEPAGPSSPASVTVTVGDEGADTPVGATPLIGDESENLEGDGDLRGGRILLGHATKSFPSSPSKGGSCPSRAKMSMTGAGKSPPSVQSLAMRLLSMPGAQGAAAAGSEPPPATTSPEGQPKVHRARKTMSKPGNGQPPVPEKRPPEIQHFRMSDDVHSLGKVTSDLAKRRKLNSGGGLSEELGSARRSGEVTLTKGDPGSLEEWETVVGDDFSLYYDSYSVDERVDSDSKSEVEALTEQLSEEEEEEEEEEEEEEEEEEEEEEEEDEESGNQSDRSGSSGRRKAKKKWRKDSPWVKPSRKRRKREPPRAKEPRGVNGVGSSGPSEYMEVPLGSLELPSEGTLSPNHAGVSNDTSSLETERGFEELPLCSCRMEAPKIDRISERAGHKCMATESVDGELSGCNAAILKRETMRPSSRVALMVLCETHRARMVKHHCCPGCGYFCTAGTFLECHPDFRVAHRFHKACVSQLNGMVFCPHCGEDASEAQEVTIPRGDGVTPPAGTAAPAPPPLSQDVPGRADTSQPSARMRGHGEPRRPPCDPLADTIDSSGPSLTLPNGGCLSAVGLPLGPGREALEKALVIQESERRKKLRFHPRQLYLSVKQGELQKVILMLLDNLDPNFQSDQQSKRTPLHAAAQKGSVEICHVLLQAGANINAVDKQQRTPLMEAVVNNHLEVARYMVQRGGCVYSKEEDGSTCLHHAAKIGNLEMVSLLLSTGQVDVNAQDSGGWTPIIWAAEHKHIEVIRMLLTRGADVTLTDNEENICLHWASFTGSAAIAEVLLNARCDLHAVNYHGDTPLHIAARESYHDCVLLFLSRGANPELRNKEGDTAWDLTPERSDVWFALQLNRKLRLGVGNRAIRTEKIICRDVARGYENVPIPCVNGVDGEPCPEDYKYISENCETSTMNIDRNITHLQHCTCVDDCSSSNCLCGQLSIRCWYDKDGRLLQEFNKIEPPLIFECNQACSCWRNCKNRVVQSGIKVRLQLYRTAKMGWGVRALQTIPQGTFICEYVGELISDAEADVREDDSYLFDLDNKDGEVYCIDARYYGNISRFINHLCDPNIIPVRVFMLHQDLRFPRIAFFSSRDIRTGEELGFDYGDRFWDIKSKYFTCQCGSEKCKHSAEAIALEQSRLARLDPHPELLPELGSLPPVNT
T1 sequence (Q9H9B1 2-1298 limits assumed): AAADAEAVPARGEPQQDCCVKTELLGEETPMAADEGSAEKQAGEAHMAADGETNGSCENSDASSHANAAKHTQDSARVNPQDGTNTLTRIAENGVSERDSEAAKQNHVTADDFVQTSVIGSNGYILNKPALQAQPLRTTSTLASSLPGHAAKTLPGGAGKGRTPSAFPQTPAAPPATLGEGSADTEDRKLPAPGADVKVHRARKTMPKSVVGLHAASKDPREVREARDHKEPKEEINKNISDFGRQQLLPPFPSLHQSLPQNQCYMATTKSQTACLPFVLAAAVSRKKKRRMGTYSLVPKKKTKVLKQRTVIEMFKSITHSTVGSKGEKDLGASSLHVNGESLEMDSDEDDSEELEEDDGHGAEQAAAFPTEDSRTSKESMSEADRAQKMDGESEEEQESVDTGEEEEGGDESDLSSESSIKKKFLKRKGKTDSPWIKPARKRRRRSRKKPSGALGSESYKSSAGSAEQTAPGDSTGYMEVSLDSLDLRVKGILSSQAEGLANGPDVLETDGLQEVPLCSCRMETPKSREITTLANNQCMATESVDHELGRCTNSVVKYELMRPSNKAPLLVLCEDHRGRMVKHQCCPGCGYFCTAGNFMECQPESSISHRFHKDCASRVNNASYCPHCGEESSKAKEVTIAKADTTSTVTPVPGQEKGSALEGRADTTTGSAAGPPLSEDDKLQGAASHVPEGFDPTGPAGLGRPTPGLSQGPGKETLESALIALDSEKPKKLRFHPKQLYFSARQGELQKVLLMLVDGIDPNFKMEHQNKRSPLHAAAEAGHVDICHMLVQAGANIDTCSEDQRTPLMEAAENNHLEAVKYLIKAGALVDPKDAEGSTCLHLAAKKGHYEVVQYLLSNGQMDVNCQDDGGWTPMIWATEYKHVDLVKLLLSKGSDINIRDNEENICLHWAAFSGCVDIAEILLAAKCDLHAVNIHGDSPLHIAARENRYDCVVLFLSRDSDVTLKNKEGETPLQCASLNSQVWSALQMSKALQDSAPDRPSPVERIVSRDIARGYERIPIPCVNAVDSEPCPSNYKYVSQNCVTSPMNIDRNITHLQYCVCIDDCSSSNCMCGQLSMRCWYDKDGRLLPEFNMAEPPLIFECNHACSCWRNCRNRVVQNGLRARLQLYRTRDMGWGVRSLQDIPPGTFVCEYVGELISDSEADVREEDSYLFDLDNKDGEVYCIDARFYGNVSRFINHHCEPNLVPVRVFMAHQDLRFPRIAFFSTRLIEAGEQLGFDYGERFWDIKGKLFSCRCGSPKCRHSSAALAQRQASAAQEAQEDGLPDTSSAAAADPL

B1: SERBP1 (protein, UniProt Q8NC51 2-408, looked up)
SERPINE1 mRNA-binding protein …: PGHLQEGFGCVVTNRFDQLFDDESDPFEVLKAAENKKKEAGGGGVGGPGAKSAAQAAAQTNSNAAGKQLRKESQKDRKNPLPPSVGVVDKKEETQPPVALKKEGIRRVGRRPDQQLQGEGKIIDRRPERRPPRERRFEKPLEEKGEGGEFSVDRPIIDRPIRGRGGLGRGRGGRGRGMGRGDGFDSRGKREFDRHSGSDRSSFSHYSGLKHEDKRGGSGSHNWGTVKDELTESPKYIQKQISYNYSDLDQSNVTEETPEGEEHHPVADTENKENEVEEVKEEGPKEMTLDEWKAIQNKDRAKVEFNIRKPNEGADGQWKKGFVLHKSKSEEAHAEDSVMDHHFRKPANDITSQLEINFGDLGRPGRGGRGGRGGRGRGGRPNRGSRTDKSSASAPDVDDPEAFPALA
B2: ORC5 (protein, UniProt O43913 1-435, looked up)
Origin recognition complex …: MPHLENVVLCRESQVSILQSLFGERHHFSFPSIFIYGHTASGKTYVTQTLLKTLELPHVFVNCVECFTLRLLLEQILNKLNHLSSSEDGCSTEITCETFNDFVRLFKQVTTAENLKDQTVYIVLDKAEYLRDMEANLLPGFLRLQELADRNVTVLFLSEIVWEKFRPNTGCFEPFVLYFPDYSIGNLQKILSHDHPPEYSADFYAAYINILLGVFYTVCRDLKELRHLAVLNFPKYCEPVVKGEASERDTRKLWRNIEPHLKKAMQTVYLREISSSQWEKLQKDDTDPGQLKGLSAHTHVELPYYSKFILIAAYLASYNPARTDKRFFLKHHGKIKKTNFLKKHEKTSNHLLGPKPFPLDRLLAILYSIVDSRVAPTANIFSQITSLVTLQLLTLVGHDDQLDGPKYKCTVSLDFIRAIARTVNFDIIKYLYDFL
B3: CAND1 (protein, UniProt Q86VP6 2-1230, looked up)
Cullin-associated …: ASASYHISNLLEKMTSSDKDFRFMATNDLMTELQKDSIKLDDDSERKVVKMILKLLEDKNGEVQNLAVKCLGPLVSKVKEYQVETIVDTLCTNMLSDKEQLRDISSIGLKTVIGELPPASSGSALAANVCKKITGRLTSAIAKQEDVSVQLEALDIMADMLSRQGGLLVNFHPSILTCLLPQLTSPRLAVRKRTIIALGHLVMSCGNIVFVDLIEHLLSELSKNDSMSTTRTYIQCIAAISRQAGHRIGEYLEKIIPLVVKFCNVDDDELREYCIQAFESFVRRCPKEVYPHVSTIINICLKYLTYDPNYNYDDEDEDENAMDADGGDDDDQGSDDEYSDDDDMSWKVRRAAAKCLDAVVSTRHEMLPEFYKTVSPALISRFKEREENVKADVFHAYLSLLKQTRPVQSWLCDPDAMEQGETPLTMLQSQVPNIVKALHKQMKEKSVKTRQCCFNMLTELVNVLPGALTQHIPVLVPGIIFSLNDKSSSSNLKIDALSCLYVILCNHSPQVFHPHVQALVPPVVACVGDPFYKITSEALLVTQQLVKVIRPLDQPSSFDATPYIKDLFTCTIKRLKAADIDQEVKERAISCMGQIICNLGDNLGSDLPNTLQIFLERLKNEITRLTTVKALTLIAGSPLKIDLRPVLGEGVPILASFLRKNQRALKLGTLSALDILIKNYSDSLTAAMIDAVLDELPPLISESDMHVSQMAISFLTTLAKVYPSSLSKISGSILNELIGLVRSPLLQGGALSAMLDFFQALVVTGTNNLGYMDLLRMLTGPVYSQSTALTHKQSYYSIAKCVAALTRACPKEGPAVVGQFIQDVKNSRSTDSIRLLALLSLGEVGHHIDLSGQLELKSVILEAFSSPSEEVKSAASYALGSISVGNLPEYLPFVLQEITSQPKRQYLLLHSLKEIISSASVVGLKPYVENIWALLLKHCECAEEGTRNVVAECLGKLTLIDPETLLPRLKGYLISGSSYARSSVVTAVKFTISDHPQPIDPLLKNCIGDFLKTLEDPDLNVRRVALVTFNSAAHNKPSLIRDLLDTVLPHLYNETKVRKELIREVEMGPFKHTVDDGLDIRKAAFECMYTLLDSCLDRLDIFEFLNHVEDGLKDHYDIKMLTFLMLVRLSTLCPSAVLQRLDRLVEPLRATCTTKVKANSVKQEFEKQDELKRSAMRAVAALLTIPEAEKSPLMSEFQSQISSNPELAAIFESIQKDSSSTNLESMDTS
B4: NUDT16L1 (protein, UniProt Q9BRJ7 1-211, looked up)
Tudor-interacting repair …: MSTAAVPELKQISRVEAMRLGPGWSHSCHAMLYAANPGQLFGRIPMRFSVLMQMRFDGLLGFPGGFVDRRFWSLEDGLNRVLGLGLGCLRLTEADYLSSHLTEGPHRVVAHLYARQLTLEQLHAVEISAVHSRDHGLEVLGLVRVPLYTQKDRVGGFPNFLSNAFVSTAKCQLLFALKVLNMMPEEKLVEALAAATEKQKKALEKLLPASS

How the values were obtained:
3×MBT domain of L3MBTL1 = assay: Triple SILAC pull-down, 3xMBT/3xMBTD355N ratio (cytoplasmic, nuclear and chromatin fractions of 293T cells); format: binding, human; details: for 3xMBT/D355N UNC Heavy: experiment with UNC0638 in heavy SILAC media; for 3xMBT/D355N UNC Light: experiment with UNC0638 in light SILAC media;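 as to all read-outs here: proteins quantified with MaxQuant, requiring at least two unique peptides and quantification in both label directions, normalized to the mean of proteins from a digested loading control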
G9a and GLP = target: T1, G9a and GLP; assay: Triple SILAC pull-down after UNC0638 treatment of 293T cells, DMSO/UNC0638 ratio of protein captured by 3×MBT; format: cell-based; parameters: cells were treated for 24 hours with UNC0638 at 2.5 μM or DMSO vehicle control; endogenous in cells; host or cells: HEK 293T; details: for Relative to UNC0638 UNC Heavy: UNC0638 in heavy SILAC media; for Relative to UNC0638 Average: average of UNC Light and UNC Heavy experiments; for Relative to UNC0638 UNC Light: UNC0638 in light SILAC media;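 as to all read-outs here: mass spectrometry (Q-Exactive) SILAC quantitation, DMSO/UNC0638 ratio computed after subtracting 3×MBTD355N mutant pull-down background, only proteins with at least twofold 3×MBT over mutant signal considered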
[1] = SILAC ratio 3xMBT vs 3xMBTD355N pull-down, 293T cells, all values in log base 2
[2] = SILAC ratio DMSO relative to UNC0638, pull-down with 3xMBT, all values in log base 2
[3] = SILAC ratio, pull-down 3xMBT vs 3xMBTD355N
[4] = SILAC ratio DMSO/UNC0638 of protein pulled down with 3xMBT

Row | Molecule | 3xMBT/D355N UNC Heavy (3×MBT domain of L3MBTL1; [1]) [log base 2] | 3xMBT/D355N UNC Light (3×MBT domain of L3MBTL1; [1]) [log base 2] | Relative to UNC0638 UNC Heavy (G9a and GLP; [2]) [log base 2] | Relative to UNC0638 Average (G9a and GLP; all values in log base 2) [log base 2] | Relative to UNC0638 UNC Light (G9a and GLP; [2]) [log base 2] | 3xMBT/D355N UNC Heavy (3×MBT domain of L3MBTL1; [3]) [log base 2] | 3xMBT/D355N UNC Light (3×MBT domain of L3MBTL1; [3]) [log base 2] | Relative to UNC0638 UNC Heavy (G9a and GLP; [4]) [log base 2] | Relative to UNC0638 UNC Light (G9a and GLP; [4]) [log base 2] | Relative to UNC0638 Average (G9a and GLP) [log base 2] | Candidate G9a/GLP target (G9a and GLP; reduced association with 3xMBT after UNC0638 treatment)
1 | B1 | −0.66 | −0.06 | −0.45 | −0.45 | – | – | – | – | – | – | –
2 | B2 | 1.97 | 2.52 | −2.12 | −1.03 | 0.06 | – | – | – | – | – | –
3 | B3 | 3.61 | 3.86 | −3.85 | −1.03 | 1.78 | – | – | – | – | – | –
4 | B4 | – | – | – | – | – | 1.84 | 1.77 | 0.57 | 0.28 | 0.43 | ✓
